Where a chain is given by its changes, count along the chain named.
T1: hBCMA (human BCMA) (Homo sapiens, UniProt Q02223)
T1 sequence (Q02223 1-184): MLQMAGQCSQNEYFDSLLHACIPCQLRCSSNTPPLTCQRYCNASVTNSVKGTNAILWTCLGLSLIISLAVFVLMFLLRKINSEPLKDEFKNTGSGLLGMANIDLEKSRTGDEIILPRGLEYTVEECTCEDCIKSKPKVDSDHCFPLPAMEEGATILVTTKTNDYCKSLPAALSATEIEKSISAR

B1: C01_Rd4_6 nM_C10: anti-BCMA antibody (antibody, V domains shown)
VH: EVQLLESGGGLVQPGGSLRLSCAASGFTFSSYPMSWVRQAPGKGLEWVSAIGGSGGSLPYADSVKGRFTISRDNSKNTLYLQMNSLRAEDTAVYYCARYWPMDSWGQGTLVTVSS
VL: EIVLTQSPGTLSLSPGERATLSCRASQSVSSVYLAWYQQKPGQAPRLLIYDASSRAPGIPDRFSGSGSGTDFTLTISRLEPEDFAVYYCQQYSTWPLTFGQGTKVEIK
B2: C01_Rd4_0.6 nM_C03: anti-BCMA antibody (antibody, V domains shown)
VH: B1 VH
VL: B1 VL with Q27C, S28D, V32T, S93M, T94R, W95S
B3: C01_Rd4_6 nM_C20: anti-BCMA antibody (antibody, V domains shown)
VH: B1 VH
VL: B1 VL with S31P, V32L, T94A, W95F
B4: C01_Rd4_0.6 nM_C09: anti-BCMA antibody (antibody, V domains shown)
VH: B1 VH
VL: B1 VL with V32L, Y33F, T94A
B5: COMBO_Rd4_6 nM_C08: anti-BCMA antibody (antibody, V domains shown)
VH: B1 VH with G56T, S57W, L58T, P59Y
VL: B1 VL with V32S, I49M, S54I, P57T, S93Q, T94K
B6: COMBO_Rd4_0.6 nM_C04: anti-BCMA antibody (antibody, V domains shown)
VH: B1 VH with I51H, G52I, L58T, P59Y
VL: B1 VL with V32T, I49M, S54I, P57T, S93Q, T94S
B7: COMBO_Rd4_6 nM_C09: anti-BCMA antibody (antibody, V domains shown)
VH: B1 VH with G52F, G53A, L58T, P59Y
VL: B1 VL with S31A, V32Q, I49M, S54I, P57T, S93Q, T94A
B8: COMBO_Rd4_0.6 nM_C20: anti-BCMA antibody (antibody, V domains shown)
VH: B1 VH
VL: B1 VL with S31Y, V32L, I49M, S54I, P57T, S93M, T94E
B9: C01_Rd4_6 nM_C09: anti-BCMA antibody (antibody, V domains shown)
VH: B1 VH with I51T, G52V, L58I, P59G
VL: B1 VL with R24A, A25C, V32T, T94A
B10: C01_Rd4_0.6 nM_C16: anti-BCMA antibody (antibody, V domains shown)
VH: B1 VH
VL: B1 VL with V32T, T94S
B11: COMBO_Rd4_0.6 nM_C21: anti-BCMA antibody (antibody, V domains shown)
VH: B1 VH
VL: B1 VL with V32S, I49M, S54I, P57T, S93Q, T94S
B12: COMBO_Rd4_6 nM_C10: anti-BCMA antibody (antibody, V domains shown)
VH: B1 VH with L58I, P59H
VL: B1 VL with V32S, L34W, A35G, I49M, S54I, P57T, S93Q, T94C
B13: C01_Rd4_0.6 nM_C06: anti-BCMA antibody (antibody, V domains shown)
VH: B1 VH
VL: B1 VL with Q27E, S28A, S30P, V32T, T94A, W95F
B14: C01_Rd4_0.6 nM_C27: anti-BCMA antibody (antibody, V domains shown)
VH: B1 VH
VL: B1 VL with V32T, T94R
B15: COMBO_Rd4_6 nM_C21: anti-BCMA antibody (antibody, V domains shown)
VH: B1 VH
VL: B1 VL with S31A, V32A, I49M, S54I, P57T, S93M, T94C
B16: COMBO_Rd4_0.6 nM_C19: anti-BCMA antibody (antibody, V domains shown)
VH: B1 VH
VL: B1 VL with S31A, I49M, S54I, P57T, S93R, T94A
B17: C01_Rd4_6 nM_C04: anti-BCMA antibody (antibody, V domains shown)
VH: B1 VH
VL: B1 VL with R24C, A25S, V32T, T94A, W95F
B18: COMBO_Rd4_0.6 nM_C23: anti-BCMA antibody (antibody, V domains shown)
VH: B1 VH with I51L, G52F, L58T, P59Y
VL: B1 VL with A25P, S26R, V32S, I49M, S54I, P57T, S93Q, T94D
B19: COMBO_Rd4_6 nM_C25: anti-BCMA antibody (antibody, V domains shown)
VH: B1 VH with L58T, P59Y, S104P
VL: B1 VL with V32P, I49M, S54I, P57T, S93Q, T94S
B20: COMBO_Rd4_0.6 nM_C02: anti-BCMA antibody (antibody, V domains shown)
VH: B1 VH
VL: B1 VL with Q27I, S28A, V32T, I49M, S54I, P57T, S93M, T94V
B21: COMBO_Rd4_6 nM_C11: anti-BCMA antibody (antibody, V domains shown)
VH: B1 VH with P59G
VL: B1 VL with S31P, V32L, I49M, S54I, P57T, S93K, T94A

Biological target: T1, hBCMA (human BCMA)
Experiment: Kinetics and affinity of hBCMA/human IgG interactions by SPR (Bio-Rad Proteon XPR36)
Format: binding
Details: human BCMA, 37° C.
How it was run: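 Anti-BCMA IgGs were amine-coupled to a GLC chip, and hBCMA analyte was injected as a single-cycle kinetic titration (0.08, 0.4, 2, 10, 50 nM; 2 min each) at 37° C. or 25° C. in HBS-T+ pH 7.4 with 1 mg/mL BSA. Dissociation was followed 2 hours, with double-referenced 1:1 Langmuir-plus-mass-transport fitting.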

| Molecule | ka Human [M⁻¹ s⁻¹] | kd Human [s⁻¹] |
| --- | --- | --- |
| B1 | 1.31e+07 | 0.00212 |
| B2 | 1.55e+07 | 0.015 |
| B3 | 6.02e+06 | 0.00276 |
| B4 | 1.51e+07 | 0.00825 |
| B5 | 8.99e+06 | 0.000169 |
| B6 | 1.07e+07 | 0.000158 |
| B7 | 8.85e+06 | 0.000143 |
| B8 | 7.65e+06 | 0.000146 |
| B9 | 1.58e+07 | 0.0128 |
| B10 | 1.55e+07 | 0.0063 |
| B11 | 1.34e+07 | 0.000115 |
| B12 | 5.47e+06 | 9.72e-05 |
| B13 | 1.82e+07 | 0.0154 |
| B14 | 1.23e+07 | 0.00374 |
| B15 | 1.17e+07 | 7.34e-05 |
| B16 | 7.86e+06 | 0.000155 |
| B17 | 2.33e+07 | 0.0497 |
| B18 | 7.39e+06 | 0.00021 |
| B19 | 7.98e+06 | 0.000113 |
| B20 | 8.57e+06 | 0.000185 |
| B21 | 6.74e+06 | 0.000124 |

Tested on: Cyno BCMA
Experiment: Kinetics and affinity of cyno BCMA/human IgG interactions by SPR (Bio-Rad Proteon XPR36)
Format: binding, cynomolgus
Details: 37° C.

| Molecule | ka Cyno [M⁻¹ s⁻¹] | kd Cyno [s⁻¹] |
| --- | --- | --- |
| B1 | 4.44e+06 | 0.00219 |
| B2 | 4.72e+06 | 0.0119 |
| B3 | 3.6e+06 | 0.00625 |
| B4 | 5.28e+06 | 0.00936 |
| B5 | 3.06e+06 | 0.000428 |
| B6 | 3.52e+06 | 0.000137 |
| B7 | 2.37e+06 | 0.000318 |
| B8 | 3.09e+06 | 0.000284 |
| B9 | 3.73e+06 | 0.00868 |
| B10 | 4.95e+06 | 0.00464 |
| B11 | 3.63e+06 | 0.000304 |
| B12 | 1.52e+06 | 0.00016 |
| B13 | 6.22e+06 | 0.0121 |
| B14 | 3.34e+06 | 0.00285 |
| B15 | 3.17e+06 | 0.000248 |
| B16 | 2.92e+06 | 0.000979 |
| B17 | 6.34e+06 | 0.0327 |
| B18 | 2.81e+06 | 0.000531 |
| B19 | 2.85e+06 | 0.000226 |
| B20 | 3.01e+06 | 0.000494 |
| B21 | 2.64e+06 | 0.000412 |

— US11814435B2, “Therapeutic antibodies and their uses” (PFIZER INC., priority 2015, dated 2023)
